Measured values taken from patent US20110110945A1, “Immunoglobulin Fusion Proteins and Methods of Making” (TransTech Pharma, Inc., priority 2007, published 2011).

Legend:
Details in all cases: ligand 5 micrograms per well; dilutions of initial fusion protein solution; FIG. 7
[1] = target: T1, amyloid-beta (Amyloid Beta (1-40)) (Homo sapiens, UniProt P05067); assay: In vitro ligand binding assay (ELISA), immobilized amyloid-beta
T1 construct: Amyloid Beta (1-40) from Biosource; purchased Biosource
Method: (§1) For example, the fusion protein may be used in a binding assay to identify potential ligands that bind to the non-immunoglobulin protein. In one example embodiment of such a binding assay, a known ligand may coated onto a solid substrate (e.g., Maxisorb plates) at a biologically relevant concentration (e.g., about 5 micrograms per well), where each well contains a total volume of about 100 microliters (μL). The plates may be incubated at 4° C. overnight to allow the ligand to bind to the substrate. Alternatively, shorter incubation periods at higher temperature (e.g., room temperature) may be used. After a period of time to allow for the ligand to bind to the substrate, the assay wells may be aspirated and a blocking buffer (e.g., 1% BSA in 50 mM imidizole buffer, pH 7.2) may be added to block nonspecific binding. […] The fusion protein bound to the immobilized ligand may be detected in a variety of ways. […] The bound complex may be detected by adding a substrate for the secondary antibody complex, e.g., the alkaline phosphatase substrate, para-nitrophenylphosphate (PNPP), and measuring conversion of PNPP to para-nitrophenol (PNP) as an increase in absorbance at 405 nm. […] In the absence of ligand (i.e., coating with only BSA) there was no increase in absorbance. The binding assay of the present invention may be used to quantify ligand binding. […]

S100b = target: T2, S100b (Homo sapiens, UniProt P04271); assay: In vitro ligand binding assay (ELISA), immobilized S100b
T2 sequence (P04271 1-92): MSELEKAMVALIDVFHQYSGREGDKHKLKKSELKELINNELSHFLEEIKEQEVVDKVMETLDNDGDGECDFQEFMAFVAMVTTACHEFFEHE
Method: as §1

amphoterin = target: T3, amphoterin (Homo sapiens, UniProt P09429); assay: In vitro ligand binding assay (ELISA), immobilized amphoterin
T3 sequence (P09429 1-215): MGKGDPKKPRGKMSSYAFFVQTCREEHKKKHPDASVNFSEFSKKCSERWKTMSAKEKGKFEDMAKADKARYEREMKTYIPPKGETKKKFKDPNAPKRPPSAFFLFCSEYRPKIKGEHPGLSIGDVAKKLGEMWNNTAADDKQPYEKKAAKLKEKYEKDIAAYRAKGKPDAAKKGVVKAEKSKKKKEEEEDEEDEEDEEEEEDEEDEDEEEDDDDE
Method: as §1

T1 sequence (P05067 672-711 limits assumed): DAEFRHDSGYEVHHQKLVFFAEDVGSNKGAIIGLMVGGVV

B1: TTP-3000: RAGE fusion protein: V domain of human RAGE (amino acids 1-136) linked to hinge-less CH2 and CH3 of human IgG1; SEQ ID NO: 17/19 (protein)
chain 1: MAAGTAVGAWVLVLSLWGAVVGAQNITARIGEPLVLKCKGAPKKPPQRLEWKLNTGRTEAWKVLSPQGGGPWDSVARVLPNGSLFLPAVGIQDEGIFRCQAMNRNGKETKSNYRVRVYQIPGKPEIVDSASELTAGPSVFLFPPKPKDTLMISRTPEVTCVVVDVSHEDPEVKFNWYVDGVEVHNAKTKPREEQYNSTYRVVSVLTVLHQDWLNGKEYKCKVSNKALPAPIEKTISKAKGQPREPQVYTLPPSRDELTKNQVSLTCLVKGFYPSDIAVEWESNGQPENNYKTTPPVLDSDGSFFLYSKLTVDKSRWQQGNVFSCSVMHEALHNHYTQKSLSLSPGK
chain 2: ENITARIGEPLVLKCKGAPKKPPQRLEWKLNTGRTEAWKVLSPQGGGPWDSVARVLPNGSLFLPAVGIQDEGIFRCQAMNRNGKETKSNYRVRVYQIPGKPEIVDSASELTAGPSVFLFPPKPKDTLMISRTPEVTCVVVDVSHEDPEVKFNWYVDGVEVHNAKTKPREEQYNSTYRVVSVLTVLHQDWLNGKEYKCKVSNKALPAPIEKTISKAKGQPREPQVYTLPPSRDELTKNQVSLTCLVKGFYPSDIAVEWESNGQPENNYKTTPPVLDSDGSFFLYSKLTVDKSRWQQGNVFSCSVMHEALHNHYTQKSLSLSPGK
modifications: synthetic three domain RAGE-Fc IgG fusion protein; synthetic three domain RAGE-Fc IgG fusion protein having signal sequence removed
specifically interact: binding to immobilized amyloid-beta (increase in absorbance at 405 nm) [1] | binding to immobilized S100b (increase in absorbance at 405 nm) (S100b) | binding to immobilized amphoterin (increase in absorbance at 405 nm) (amphoterin)
